Results taken from patent publication US9206246B2, “Heparin/heparan sulfate-dependent inhibitors of activated protein C and uses thereof in treating hemophilic disorders” (Academia Sinica, priority 2012, dated 2015).
Values joined by “and” are separate entries in the source; they are usually repeats but may differ in a detail not shown here. Identical values can stand only once. “Also recorded” adds a separate entry of the source.

Experiments:
Format in all cases: biochemical
trypsin = test: Selectivity profile, amidolytic activity of trypsin; settings: equimolar DrKIn-I and enzyme active site, trypsin 5 nM
Experimental: (§1) In each of these experiments, the molar ratio of protease active site to inhibitor was 1:1. The final concentrations of these proteases and their respective substrates were as follows: FXIIa (20 nM)/S-2302 (0.2 mM), FXIa (2.5 nM)/S-2366 (0.2 mM), FXa (10 nM)/S-2222 (1.3 mM), FIXa (200 nM)/Spectrozyme FIXa (1.3 mM), FVIIa (100 nM)/S-2288 (1.3 mM), thrombin (5 nM)/T-1637 (0.2 mM), kallikrein (5 nM)/S-2302 (0.2 mM), plasmin (20 nM)/S-2251 (0.2 mM), tPA (80 nM)/Spectrozyme tPA (0.2 mM), uPA (100 nM)/S-2288 (1.3 mM), APC (10 nM)/Spectrozyme PCa (0.2 mM) and trypsin (5 nM)/S-2222 (0.2 mM). Results shown are means±SD of at least three experiments.
(§2) DrKIn-I, with or without heparin, was screened for its inhibitory activity against trypsin and also against serine proteases in the coagulation cascade (FXIIa, FXIa, FXa, FIXa, FVIIa, thrombin and kallikrein) and in the fibrinolytic system (plasmin, tPA and uPA). The amidolytic activities of these proteases were determined in the presence or absence of equimolar concentrations of DrKIn-I using their respective chromogenic substrates.

FXIa = target: T1, FXIa (Homo sapiens, UniProt P03951); test: Selectivity profile and Ki, amidolytic activity of FXIa
T1 construct: factor XIa (FXIa); purchased Haematologic Technologies
T1 sequence (P03951 388-625 limits assumed): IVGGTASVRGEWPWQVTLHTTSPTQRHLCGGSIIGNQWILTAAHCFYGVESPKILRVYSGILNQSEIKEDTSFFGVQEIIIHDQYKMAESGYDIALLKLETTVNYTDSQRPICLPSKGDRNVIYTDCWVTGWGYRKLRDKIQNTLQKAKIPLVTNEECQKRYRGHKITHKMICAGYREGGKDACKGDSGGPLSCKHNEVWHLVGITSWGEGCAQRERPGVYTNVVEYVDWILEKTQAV
T1 sequence (P03951 19-387 limits assumed): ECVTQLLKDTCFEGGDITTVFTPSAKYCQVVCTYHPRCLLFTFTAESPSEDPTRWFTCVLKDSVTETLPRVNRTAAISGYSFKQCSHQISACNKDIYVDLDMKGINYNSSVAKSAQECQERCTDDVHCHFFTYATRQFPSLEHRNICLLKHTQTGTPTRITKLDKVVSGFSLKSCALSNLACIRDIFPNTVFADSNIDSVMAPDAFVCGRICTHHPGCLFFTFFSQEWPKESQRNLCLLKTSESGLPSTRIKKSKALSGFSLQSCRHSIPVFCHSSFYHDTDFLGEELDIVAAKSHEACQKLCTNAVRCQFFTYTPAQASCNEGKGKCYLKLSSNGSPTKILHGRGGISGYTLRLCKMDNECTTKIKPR
Experimental: as §1, §2

plasmin = target: T2, plasmin (Homo sapiens, UniProt P00747); test: Selectivity profile and Ki, amidolytic activity of plasmin; settings: for inhibition of plasmin: equimolar, plasmin 20 nM
T2 construct: thrombin, plasma kallikrein and plasmin were obtained; purchased Haematologic Technologies
T2 sequence (P00747 581-810 limits assumed): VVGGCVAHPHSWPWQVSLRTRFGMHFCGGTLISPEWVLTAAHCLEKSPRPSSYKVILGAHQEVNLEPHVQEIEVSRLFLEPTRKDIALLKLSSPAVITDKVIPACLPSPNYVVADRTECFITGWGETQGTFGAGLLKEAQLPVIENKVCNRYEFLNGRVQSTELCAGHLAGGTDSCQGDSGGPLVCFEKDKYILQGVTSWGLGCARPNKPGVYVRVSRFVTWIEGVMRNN
T2 sequence (P00747 97-580 limits assumed): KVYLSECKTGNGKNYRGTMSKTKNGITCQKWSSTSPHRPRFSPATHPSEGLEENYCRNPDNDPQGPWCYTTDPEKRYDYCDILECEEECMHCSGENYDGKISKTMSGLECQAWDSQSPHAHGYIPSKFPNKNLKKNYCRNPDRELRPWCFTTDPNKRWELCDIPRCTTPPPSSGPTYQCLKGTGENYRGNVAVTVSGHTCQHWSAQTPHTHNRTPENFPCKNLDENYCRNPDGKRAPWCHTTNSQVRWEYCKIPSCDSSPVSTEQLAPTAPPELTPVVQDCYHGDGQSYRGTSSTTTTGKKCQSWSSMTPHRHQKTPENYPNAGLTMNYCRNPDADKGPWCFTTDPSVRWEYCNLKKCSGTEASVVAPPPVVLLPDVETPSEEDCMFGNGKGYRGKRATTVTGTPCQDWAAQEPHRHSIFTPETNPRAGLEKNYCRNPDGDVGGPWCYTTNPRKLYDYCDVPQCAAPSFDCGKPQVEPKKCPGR
Experimental: as §1, §2

thrombin = target: T3, thrombin (Homo sapiens, UniProt P00734); test: Selectivity profile, amidolytic activity of thrombin
T3 construct: thrombin, plasma kallikrein and plasmin were obtained; purchased Haematologic Technologies
Experimental: as §1, §2

factor Xa (FXa) = target: T4, factor Xa (FXa) (Homo sapiens, UniProt P00742); test: Selectivity profile, amidolytic activity of FXa
T4 construct: factor Xa (FXa); purchased Haematologic Technologies
T4 sequence (P00742 235-488 limits assumed): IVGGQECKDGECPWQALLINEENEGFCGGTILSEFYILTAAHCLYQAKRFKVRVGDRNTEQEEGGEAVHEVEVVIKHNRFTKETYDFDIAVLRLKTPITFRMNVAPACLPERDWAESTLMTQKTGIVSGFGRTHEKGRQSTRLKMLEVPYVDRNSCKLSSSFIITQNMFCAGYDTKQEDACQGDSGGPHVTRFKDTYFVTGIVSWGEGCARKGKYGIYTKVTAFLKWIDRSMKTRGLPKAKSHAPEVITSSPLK
T4 sequence (P00742 41-179 limits assumed): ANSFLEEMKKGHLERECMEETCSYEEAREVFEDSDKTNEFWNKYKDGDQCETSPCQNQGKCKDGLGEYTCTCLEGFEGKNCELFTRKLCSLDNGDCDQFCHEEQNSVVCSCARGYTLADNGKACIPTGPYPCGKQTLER
Experimental: as §1, §2

[1] = test system: protein C-deficient plasma; test: Thrombin generation assay in protein C-deficient plasma; settings: TM-containing protein C-deficient plasma, heparan sulfate
Experimental: Thrombin generation in normal (A) and protein C-deficient (B) plasma. Experiments were performed in the presence of heparan sulfate (2 μg/ml). Solid lines represent thrombin generation in the presence of 100 nM thrombomodulin (TM) and varying concentrations of DrKIn-I (●, 0 nM; ▪, 40 nM; ▴, 80 nM; ◯, 200 nM). Dashed lines represent thrombin generation in the absence of TM and DrKIn-I.
Briefly, 80 μl of either normal plasma, protein C-deficient plasma, FVIII-deficient plasma or FIX deficient plasma containing 2 μM corn trypsin inhibitor, 2 μg/ml heparan sulfate (four disaccharide units long), 30 μM DOPC/DOPS/DOPE (60:20:20) and 100 nM recombinant TM was incubated with 20 μl of 500-fold diluted TF solution (Innovin; Dade Behring) in the absence or presence of the indicated concentrations of DrKIn-I. Following incubation for 3 minutes at 37° C., thrombin generation was initiated by the dispensation of 20 μl of 2.5 mM fluorogenic substrate (Z-Gly-Gly-Arg-AMC.HCl) dissolved in 0.15 M NaCl, 60 mg/ml BSA and 100 mM CaCl2. Measurements were taken at 1 minute intervals on a SpectraMax M2^e Microplate Reader using an excitation wavelength of 360 nm and an emission wavelength of 460 nm. In some assays, experiments were performed in the absence of thrombomodulin. Results were evaluated using the Technothrombin TGA software (Technoclone).

APC in normal plasma = test: APTT-based APC resistance assay in normal plasma; settings: 200 nM DrKIn-I, 40 nM APC, 2 μg/ml heparan sulfate
Experimental: (§3) APTT-based clotting times were measured in normal, FVIII-deficient and FIX-deficient plasma containing 2 μg/ml heparan sulfate in the presence or absence of 40 nM APC and the indicated concentrations of DrKIn-I. Results shown are means±S.D. of at least three experiments.
(§4) 50 μl of normal plasma, FVIII-deficient plasma or FIX-deficient plasma supplemented with 2 μg/ml heparan sulfate (four disaccharide units long) was exposed to APC (40 nM) and varying concentrations of DrKIn-I (50-200 nM). 50 μl of activated partial thromboplastin (APTT) reagent (HYPHEN Biomed) was added and incubated for 1 minute at 37° C. Finally, clotting was initiated by adding 50 μl of 20 mM CaCl2. Coagulation times, which reflect the activities of APC, were recorded on a coagulometer (Hemostasis Analyzer KC-1; Sigma Diagnostics).

[2] = test system: APC in FVIII-deficient plasma; test: APTT-based APC resistance assay in FVIII-deficient plasma; settings: 200 nM DrKIn-I, 40 nM APC, 2 μg/ml heparan sulfate
Experimental: as §3, §4

APC = APC (Homo sapiens, UniProt P04070); test: Kinetic analysis of APC inhibition (Morrison tight binding equation); design: purchased Haematologic Technologies
Chain of APC (P04070 212-450 limits assumed): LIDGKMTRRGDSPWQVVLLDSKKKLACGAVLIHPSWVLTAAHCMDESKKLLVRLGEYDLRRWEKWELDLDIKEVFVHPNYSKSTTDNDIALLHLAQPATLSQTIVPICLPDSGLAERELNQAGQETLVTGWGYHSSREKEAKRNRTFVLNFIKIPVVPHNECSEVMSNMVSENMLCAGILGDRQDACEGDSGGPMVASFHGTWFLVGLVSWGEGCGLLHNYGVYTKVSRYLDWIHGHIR
Chain of APC (P04070 43-197 limits assumed): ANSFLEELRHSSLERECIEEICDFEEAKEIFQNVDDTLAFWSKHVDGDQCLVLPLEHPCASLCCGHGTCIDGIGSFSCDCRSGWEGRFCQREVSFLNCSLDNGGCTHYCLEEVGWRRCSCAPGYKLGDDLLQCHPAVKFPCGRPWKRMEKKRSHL
Experimental: Initial velocities of APC (20 nM) were measured in the presence of increasing concentrations of DrKIn-I (0-80 nM) using different concentrations of Spectrozyme PCa (●, 0.4 mM; ▪, 0.2 mM; ▴, 0.1 mM; ▾, 0.05 mM; ♦, 0.025 mM) as substrate.
APC was incubated with heparin and increasing concentrations of DrKIn-I for 3 minutes. The initial reaction velocities (mOD405 nm/min) were then determined at 37° C. after the addition of varying concentrations of Spectrozyme PCa. The final concentrations were as follows: APC (20 nM), heparin (0.1 U/ml), DrKIn-I (0-80 nM) and Spectrozyme PCa (0.025-0.4 mM). Initial velocities were plotted against inhibitor concentrations for each substrate concentration tested and the plots were subjected to nonlinear least squares regression using GraphPad Prism software. The inhibition constant (Ki) of DrKIn-I was determined by global fitting to Morrison's tight binding equation as shown below, Vs=(Vo/2Et){[Ki′+It−Et)^2+4Ki′Et]^1/2−(Ki′+It−Et) (Eq. 1) where Vs is the steady state velocity in the presence of inhibitor, while Vo is the velocity in the absence of inhibitor. It is the total inhibitor concentration and Et is the total enzyme concentration. Ki′ is the apparent inhibition constant. […] (vii) Selectivity Profile of DrKIn-I

Substance: DrKIn-I (CGGNDNNFETRKKCRQTCGAPRKGRPT)
- inhibition of trypsin (trypsin): ~45%
- inhibition of FXIa (FXIa; equimolar DrKIn-I and enzyme active site, FXIa 2.5 nM): ~40%
- Ki (FXIa; in the presence of heparin, read-out: Ki for FXIa inhibition): 1.33 ± 0.08 nM
- inhibition of plasmin (plasmin; in the absence of heparin): ~20%
- inhibition of plasmin (plasmin; in the presence of heparin (0.1 U/ml)): ~70%
- Ki (plasmin; in the presence of heparin, read-out: Ki for plasmin inhibition): 1.56 ± 0.09 nM
- inhibitory activity against thrombin (thrombin): no inhibitory activities
- inhibitory activity against factor Xa (factor Xa (FXa)): no inhibitory activities
- thrombin generation profile (APC-independent) [1]: did not alter the thrombin generation profile; also recorded: negligible effects
- clotting time (APC in normal plasma): almost completely restored the clotting time to that observed in the absence of APC
- clotting time [2]: almost completely restored the clotting time to that observed in the absence of APC
- Ki (APC; 0.1 U/ml heparin, APC 20 nM, read-out: inhibition constant (Ki)): 0.053 nM and ~0.053 nM and ~0.05 nM
- ratio of Ki for FXIa and plasmin to Ki for APC (APC; in the presence of heparin): at least 25 fold
